From patent publication US20040157327A1

Target: Pablo, full length (pro-apoptotic Bcl-xL binding protein) (human) (UniProt Q92558)
Assay: cell-based or functional assay

UniProt Q92558, sequence (Q92558 whole entry): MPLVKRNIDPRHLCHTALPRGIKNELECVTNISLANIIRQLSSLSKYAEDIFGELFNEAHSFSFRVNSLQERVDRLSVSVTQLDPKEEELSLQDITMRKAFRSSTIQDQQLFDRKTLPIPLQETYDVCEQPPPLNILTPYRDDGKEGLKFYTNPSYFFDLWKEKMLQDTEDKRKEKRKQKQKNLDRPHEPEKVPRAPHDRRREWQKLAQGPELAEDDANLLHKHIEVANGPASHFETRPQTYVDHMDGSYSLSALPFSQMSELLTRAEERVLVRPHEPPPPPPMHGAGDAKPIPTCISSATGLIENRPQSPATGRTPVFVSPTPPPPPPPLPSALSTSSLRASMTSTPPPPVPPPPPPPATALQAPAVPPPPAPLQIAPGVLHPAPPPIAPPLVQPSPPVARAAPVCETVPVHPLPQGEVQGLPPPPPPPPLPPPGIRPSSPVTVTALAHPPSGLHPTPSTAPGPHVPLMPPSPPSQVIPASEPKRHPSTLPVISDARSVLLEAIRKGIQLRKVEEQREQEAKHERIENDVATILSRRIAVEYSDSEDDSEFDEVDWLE

## Bcl-xL-eGFP (from UniProt Q07817 1-233)
  apoptotic nuclei at 48 hours post-transfection/induction (PC12-Pablo cells, Hoechst stain): 3.5%
  percentage of PC12 cells that were eGFP+, 48 hours post-transfection/induction: 14%
